Reference: patent US20200040059A1
Where a chain is given by its changes, count along the chain named. In names and notes the source's numbering stands.

Columns and labels:
[1] = biological target: CD112R (human) (UniProt Q6DKI7); assay: flow cytometry, cells expressing target, 25 nM
[2] = biological target: T1, CD226 (human) (UniProt Q15762); assay: flow cytometry, cells expressing target, 25 nM
T1 sequence: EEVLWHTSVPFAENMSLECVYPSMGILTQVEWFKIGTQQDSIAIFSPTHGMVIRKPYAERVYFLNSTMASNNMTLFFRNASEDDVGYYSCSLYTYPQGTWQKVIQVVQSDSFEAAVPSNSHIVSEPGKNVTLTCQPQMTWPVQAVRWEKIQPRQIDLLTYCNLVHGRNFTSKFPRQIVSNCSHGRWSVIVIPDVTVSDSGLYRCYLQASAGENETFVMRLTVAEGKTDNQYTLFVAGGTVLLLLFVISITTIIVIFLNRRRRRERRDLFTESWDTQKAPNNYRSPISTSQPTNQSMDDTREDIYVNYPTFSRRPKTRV

[3] = biological target: T2, TIGIT (human) (UniProt Q495A1); assay: flow cytometry, cells expressing target, 25 nM
T2 sequence: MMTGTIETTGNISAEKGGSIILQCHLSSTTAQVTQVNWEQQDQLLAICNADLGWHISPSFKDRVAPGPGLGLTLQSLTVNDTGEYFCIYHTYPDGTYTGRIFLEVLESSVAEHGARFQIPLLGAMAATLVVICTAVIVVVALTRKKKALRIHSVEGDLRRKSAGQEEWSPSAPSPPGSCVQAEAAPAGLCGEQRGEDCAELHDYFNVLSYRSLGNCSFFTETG

[4] = biological target: T3, CD96 (UniProt P40200); assay: flow cytometry, cells expressing target, 25 nM
T3 sequence (looked up): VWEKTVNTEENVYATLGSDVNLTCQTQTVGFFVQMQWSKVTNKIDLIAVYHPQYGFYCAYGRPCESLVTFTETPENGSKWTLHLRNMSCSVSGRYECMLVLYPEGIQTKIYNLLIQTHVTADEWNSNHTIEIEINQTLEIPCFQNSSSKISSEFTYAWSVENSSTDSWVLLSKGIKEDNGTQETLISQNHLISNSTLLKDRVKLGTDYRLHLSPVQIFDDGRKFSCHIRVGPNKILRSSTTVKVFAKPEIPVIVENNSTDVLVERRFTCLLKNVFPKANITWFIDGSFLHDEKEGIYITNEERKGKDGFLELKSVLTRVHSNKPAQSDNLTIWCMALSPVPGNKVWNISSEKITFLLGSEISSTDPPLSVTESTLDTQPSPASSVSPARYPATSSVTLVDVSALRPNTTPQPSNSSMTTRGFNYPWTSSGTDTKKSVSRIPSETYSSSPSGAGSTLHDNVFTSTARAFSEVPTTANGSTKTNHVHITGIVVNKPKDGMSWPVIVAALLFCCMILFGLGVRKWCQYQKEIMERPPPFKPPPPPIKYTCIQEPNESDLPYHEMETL

[5] = biological target: T1, CD226 (human); assay: flow cytometry, CD226-expressing cells
[6] = biological target: T3, CD96; assay: flow cytometry, CD96-expressing cells
[7] = biological target: T4, human TIGIT, full length, expressed on transfected cells (human) (UniProt Q495A1); assay: flow cytometry on transfected cells
T4 sequence: T2 sequence

[8] = biological target: CD96, expressed on transfected cells (UniProt P40200); assay: flow cytometry on transfected cells
[9] = biological target: CD112R, expressed on transfected cells (human) (UniProt Q6DKI7); assay: flow cytometry on transfected cells
[10] = biological target: T2, TIGIT (human); assay: flow cytometry, TIGIT-expressing cells
[11] = biological target: T3, CD96; assay: flow cytometry, cells
[12] = biological target: T1, CD226 (human); assay: flow cytometry, transfected cells
[13] = biological target: T2, TIGIT (human); assay: flow cytometry, transfected cells
[14] = biological target: human CD28, full-length, expressed on transfected Expi293 cells (human) (UniProt P10747); assay: flow cytometry on CD28-expressing Expi293 cells
[15] = biological target: human ICOS as used for the 'ICOS OD' read-out of Table 14 (human); assay: binding read as OD; format not described
[16] = biological target: T5, CD112R (full length, expressed on transfected cells) (human), Q6DKI7; assay: flow cytometry, 20 nM; ratio to WT CD112 IgV-Fc; settings: remark: other sources report otherwise
T5 chain: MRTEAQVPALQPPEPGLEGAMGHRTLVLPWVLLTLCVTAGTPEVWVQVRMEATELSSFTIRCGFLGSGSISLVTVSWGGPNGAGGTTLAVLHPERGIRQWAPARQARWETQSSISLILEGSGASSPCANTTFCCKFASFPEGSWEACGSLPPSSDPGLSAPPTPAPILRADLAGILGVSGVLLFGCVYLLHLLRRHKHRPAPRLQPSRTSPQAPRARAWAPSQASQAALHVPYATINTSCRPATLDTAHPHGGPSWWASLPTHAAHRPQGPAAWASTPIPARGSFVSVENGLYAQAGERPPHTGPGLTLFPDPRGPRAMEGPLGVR

[17] = biological target: T5, CD112R (full length, expressed on …); assay: flow cytometry on cells expressing the target, 20 nM; settings: remark: other sources report otherwise

human ICOS as used for the 'ICOS OD' read-out of Table 14 (human), sequence (Q9Y6W8 whole entry): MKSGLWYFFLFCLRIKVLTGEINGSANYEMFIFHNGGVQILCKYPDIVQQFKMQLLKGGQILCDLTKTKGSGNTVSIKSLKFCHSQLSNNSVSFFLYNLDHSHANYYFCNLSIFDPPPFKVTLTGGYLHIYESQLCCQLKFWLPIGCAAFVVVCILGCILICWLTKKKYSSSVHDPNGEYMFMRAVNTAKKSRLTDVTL

B1: CD155 variant IgV-Fc V9L, P18F, T45A, S65A, S67V, R78K, L79V, F91S, T107M, S114T (Fc fusion, not shown: a dimerising Fc or GST; small tags and cut ends)
chain: PGTGDLVVQAPTQVFGFLGDSVTLPCYLQVPNMEVTHVSQLAWARHGESGSMAVFHQTQGPAYVESKRLEFVAAKVGAELRNASLRMSGLRVEDEGNYTCLFVMFPQGSRTVDIWL
- MFI at 25 nM [1]: 812 MFI
- MFI at 25 nM [2]: 154000 MFI
- MFI at 25 nM [3]: 130000 MFI
- MFI at 25 nM [4]: 85600 MFI

B2: CD155 variant IgV-Fc P18T, M36T, S65A, S67E, L79Q, A81T, F91S, G111R (Fc fusion, not shown: a dimerising Fc or GST; small tags and cut ends)
chain: PGTGDVVVQAPTQVTGFLGDSVTLPCYLQVPNTEVTHVSQLTWARHGESGSMAVFHQTQGPAYEESKRLEFVAARQGTELRNASLRMSGLRVEDEGNYTCLFVTFPQRSRSVDIWL
- MFI at 11.1 nM [5]: 1130 MFI
- MFI at 11.1 nM [6]: 963 MFI

B3: CD155 variant IgV-Fc P18T, D23G, Q60R, S67L, L79P, F91S, T107M, V115A (Fc fusion, not shown: a dimerising Fc or GST; small tags and cut ends)
chain: B2 chain with D20G, T33M, Q57R, A62S, E64L, Q76P, T78A, T104M, R108G, V112A
- MFI at 25 nM [1]: 874 MFI
- MFI at 25 nM [2]: 30900 MFI
- MFI at 25 nM [3]: 64100 MFI
- MFI at 25 nM [4]: 109000 MFI

B4: CD155 variant IgV-Fc P18T, S52A, V57A, Q60R, Q62K, S65C, L79P, F91T, N100Y, T107M (Fc fusion, not shown: a dimerising Fc or GST; large carriers; small tags and cut ends)
chain: PGTGDVVVQAPTQVTGFLGDSVTLPCYLQVPNMEVTHVSQLTWARHGEAGSMAAFHRTKGPCYSESKRLEFVAARPGAELRNASLRMTGLRVEDEGYYTCLFVMFPQGSRSVDIWL
- MFI at 25 nM [1]: 908 MFI
- MFI at 25 nM [3]: 187000 MFI
- MFI at 25 nM [4]: 3790 MFI

B5: CD155 variant IgV-Fc P18L, K70E, L79P, F91S, V95A, G111R (Fc fusion, not shown: a dimerising Fc or GST; small tags and cut ends)
chain: WPPPGTGDVVVQAPTQVLGFLGDSVTLPCYLQVPNMEVTHVSQLTWARHGESGSMAVFHQTQGPSYSESERLEFVAARPGAELRNASLRMSGLRAEDEGNYTCLFVTFPQRSRSVDIWL
- Fold Change from CD155-ECD [5]: 0.07 fold
- MFI at 11.1 nM [5]: 1120 MFI
- Fold Change from CD155-ECD [6]: 0.06 fold
- MFI at 11.1 nM [6]: 973 MFI

B6: CD155 variant IgV-Fc V9I, V10I, P18S, F20S, T45A, L79P, F91S, L104M, F108Y, G111R, S112V (Fc fusion, not shown: a dimerising Fc or GST; small tags and cut ends)
chain: B5 chain with V9I, V10I, L18S, F20S, T45A, E70K, A95V, L104M, F108Y, S112V
- Fold Change from CD155-ECD [5]: 0.06 fold
- MFI at 11.1 nM [5]: 973 MFI
- Fold Change from CD155-ECD [6]: 0.06 fold
- MFI at 11.1 nM [6]: 974 MFI

B7: CD155 variant IgV-Fc T15S, P18S, Y30H, Q32L, Q62R, L79P, F91S, T107M (Fc fusion, not shown: a dimerising Fc or GST; small tags and cut ends)
chain: PGTGDVVVQAPSQVSGFLGDSVTLPCHLLVPNMEVTHVSQLTWARHGESGSMAVFHQTRGPSYSESKRLEFVAARPGAELRNASLRMSGLRVEDEGNYTCLFVMFPQGSRSVDIWL
- MFI at 25 nM [1]: 1060 MFI
- MFI at 25 nM [2]: 2090 MFI
- MFI at 25 nM [3]: 16200 MFI

B8: CD155 variant T45Q, S52M, L104E IgV-Fc (Fc fusion, not shown: a dimerising Fc or GST; small tags and cut ends)
chain: PGTGDVVVQAPTQVPGFLGDSVTLPCYLQVPNMEVTHVSQLQWARHGEMGSMAVFHQTQGPSYSESKRLEFVAARLGAELRNASLRMFGLRVEDEGNYTCEFVTFPQGSRSVDIWL
- MFI at 100 nM [7]: 79500
- MFI at 100 nM [8]: 6310
- MFI at 100 nM [9]: 2600

B9: CD155 variant IgV-Fc P18S, S42G, T45V, F58L, S67W, L104N (Fc fusion, not shown: a dimerising Fc or GST; large carriers; small tags and cut ends)
chain: B8 chain with P15S, S39G, Q42V, M49S, F55L, S64W, E101N
- MFI at 100 nM [10]: 14100 MFI

B10: CD155 G7E, P18T, Y30C, F91S IgV-Fc (Fc fusion, not shown: a dimerising Fc or GST; small tags and cut ends)
chain: B8 chain with G4E, P15T, Y27C, Q42T, M49S, F88S, E101L
- MFI [11]: 7910
- MFI [12]: 12900
- MFI [13]: 13000

B11: CD155 variant IgV-Fc P18S, H59R, A76G, R78S, L79P (Fc fusion, not shown: a dimerising Fc or GST; large carriers; small tags and cut ends)
chain: B8 chain with P15S, Q42T, M49S, H56R, A73G, R75S, L76P, E101L
- MFI at 25 nM [1]: 1010 MFI
- MFI at 25 nM [2]: 79400 MFI
- MFI at 25 nM [3]: 131000 MFI
- MFI at 25 nM [4]: 44500 MFI

B12: CD155 variant IgV-Fc V11A, P18S, L79P, F91S, L104M, G111R (Fc fusion, not shown: a dimerising Fc or GST; small tags and cut ends)
chain: B7 chain with V8A, S12T, H27Y, L29Q, R59Q, L101M, M104T, G108R
- MFI at 11.1 nM [5]: 974 MFI
- MFI at 11.1 nM [6]: 923 MFI

B13: CD155 variant T45Q, S52R, L104E IgV-Fc (Fc fusion, not shown: a dimerising Fc or GST; small tags and cut ends)
chain: B8 chain with M49R
- MFI at 100 nM [7]: 122000
- MFI at 100 nM [8]: 3750
- MFI at 100 nM [9]: 2620

B14: ICOSL variant N52S/T113E ECD-Fc fusion (Fc fusion, UniProt O75144 19-256 with N52S T113E, looked up, part only)
extracellular domain: DTQEKEVRAMVGSDVELSCACPEGSRFDLNDVYVYWQTSESKTVVTYHIPQSSSLENVDSRYRNRALMSPAGMLRGDFSLRLFNVTPQDEQKFHCLVLSQSLGFQEVLSVEVELHVAANFSVPVVSAPHSPSQDELTFTCTSINGYPRPNVYWINKTDNSLLDQALQNDTVFLNMRGLYDVVSVLRIARTPSVNIGCCIENVLLQQNLTVGSQTGNDIGERDKITENPVSTGEKNAAT
modifications: extracellular domain human IgG1 Fc fusion
- MFI [14]: 54 MFI
- MFI parental ratio (ratio to WT ICOSL ECD-Fc) [14]: 3
- ICOS OD parental ratio (ratio to WT ICOSL ECD-Fc) [15]: 1.76

B15: ICOSL variant F120S/Y152H/N201S ECD-Fc fusion (Fc fusion, not shown: a dimerising Fc or GST; small tags and cut ends)
chain: B14 extracellular domain with S52N, E113T, F120S, Y152H, N201S
- MFI [14]: 16 MFI

B16: WT CD112-Fc ECD, Q92692 32-360 (Fc fusion, not shown: a dimerising Fc or GST; small tags and cut ends)
chain: QDVRVQVLPEVRGQLGGTVELPCHLLPPVPGLYISLVTWQRPDAPANHQNVAAFHPKMGPSFPSPKPGSERLSFVSAKQSTGQDTEAELQDATLALHGLTVEDEGNYTCEFATFPKGSVRGMTWLRVIAKPKNQAEAQKVTFSQDPTTVALCISKEGRPPARISWLSSLDWEAKETQVSGTLAGTVTVTSRFTLVPSGRADGVTVTCKVEHESFEEPALIPVTLSVRYPPEVSISGYDDNWYLGRTDATLSCDVRSNPEPTGYDWSTTSGTFPTSAVAQGSQLVIHAVDSLFNTTFVCTVTNAVGMGRAEQVIFVRETPNTAGAGATGG
- Fold Increase to WT IgV [16]: 0.75 fold
- MFI at 20 nM [17]: 1250
